Results taken from the Human Domainome abundance scans (Beltran et al. 2025).
± gives the uncertainty stated by the source.

B1: POU domain, class 3, transcription factor 1, residues 247 to 324; numbered along this chain, Q03052 (parent)
chain: EDAPSSDDLEQFAKQFKQRRIKLGFTQADVGLALGTLYGNVFSQTTICRFEALQLSFKNMCKLKPLLNKWLEETDSSS

Variants of: B1
Assay: abundance fitness (aPCA) (normalised: wild type 0, dead -1); higher = more abundant; growth selection in yeast, the domain comes from the species named
Details: Homo sapiens

Variant	abundance fitness
EDAPSSDDLEQFAKQFKQRRIKLGFTQADVGLALGTLYTNVFSQTTICRFEALQLSFKNMCKLKPLLNKWLEETDSSS	-0.196 ± 0.12
EDAPSSDDLEQFAKQFKQRRIKLGFTQADVGLALGTLYPNVFSQTTICRFEALQLSFKNMCKLKPLLNKWLEETDSSS	-0.124 ± 0.089
EDAPSSDDLEQFAKQFKQRRIKLGFTQADVGLALGTLYNNVFSQTTICRFEALQLSFKNMCKLKPLLNKWLEETDSSS	-0.213 ± 0.35
EDAPSSDDLEQFAKQFKQRRIKLGFTQADVGLALGTLYINVFSQTTICRFEALQLSFKNMCKLKPLLNKWLEETDSSS	-0.488 ± 0.33
EDAPSSDDLEQFAKQFKQRRIKLGFTQADVGLALGTLYWNVFSQTTICRFEALQLSFKNMCKLKPLLNKWLEETDSSS	-0.421 ± 0.098
EDAPSSDDLEQFAKQFKQRRIKLGFTQADVGLALGTLYRNVFSQTTICRFEALQLSFKNMCKLKPLLNKWLEETDSSS	-0.198 ± 0.057
EDAPSSDDLEQFAKQFKQRRIKLGFTQADVGLALGTLYHNVFSQTTICRFEALQLSFKNMCKLKPLLNKWLEETDSSS	0.144 ± 0.16
EDAPSSDDLEQFAKQFKQRRIKLGFTQADVGLALGTLYANVFSQTTICRFEALQLSFKNMCKLKPLLNKWLEETDSSS	-0.365 ± 0.076
EDAPSSDDLEQFAKQFKQRRIKLGFTQADVGLALGTLYMNVFSQTTICRFEALQLSFKNMCKLKPLLNKWLEETDSSS	-1.04 ± 0.35
EDAPSSDDLEQFAKQFKQRRIKLGFTQADVGLALGTLYLNVFSQTTICRFEALQLSFKNMCKLKPLLNKWLEETDSSS	-0.751 ± 0.12
EDAPSSDDLEQFAKQFKQRRIKLGFTQADVGLALGTLYENVFSQTTICRFEALQLSFKNMCKLKPLLNKWLEETDSSS	-0.344 ± 0.081
EDAPSSDDLEQFAKQFKQRRIKLGFTQADVGLALGTLYCNVFSQTTICRFEALQLSFKNMCKLKPLLNKWLEETDSSS	-0.523 ± 0.15
EDAPSSDDLEQFAKQFKQRRIKLGFTQADVGLALGTLYSNVFSQTTICRFEALQLSFKNMCKLKPLLNKWLEETDSSS	-0.258 ± 0.074
EDAPSSDDLEQFAKQFKQRRIKLGFTQADVGLALGTLYDNVFSQTTICRFEALQLSFKNMCKLKPLLNKWLEETDSSS	-0.192 ± 0.1
EDAPSSDDLEQFAKQFKQRRIKLGFTQADVGLALGTLYVNVFSQTTICRFEALQLSFKNMCKLKPLLNKWLEETDSSS	-0.846 ± 0.11
EDAPSSDDLEQFAKQFKQRRIKLGFTQADVGLALGPLYGNVFSQTTICRFEALQLSFKNMCKLKPLLNKWLEETDSSS	-0.262 ± 0.1
EDAPSSDDLEQFAKQFKQRRIKLGFTQADVGLALGNLYGNVFSQTTICRFEALQLSFKNMCKLKPLLNKWLEETDSSS	-0.025 ± 0.17
EDAPSSDDLEQFAKQFKQRRIKLGFTQADVGLALGKLYGNVFSQTTICRFEALQLSFKNMCKLKPLLNKWLEETDSSS	0.111 ± 0.071
EDAPSSDDLEQFAKQFKQRRIKLGFTQADVGLALGMLYGNVFSQTTICRFEALQLSFKNMCKLKPLLNKWLEETDSSS	0.02 ± 0.069
EDAPSSDDLEQFAKQFKQRRIKLGFTQADVGLALGFLYGNVFSQTTICRFEALQLSFKNMCKLKPLLNKWLEETDSSS	-0.659 ± 0.35
EDAPSSDDLEQFAKQFKQRRIKLGFTQADVGLALGVLYGNVFSQTTICRFEALQLSFKNMCKLKPLLNKWLEETDSSS	-0.36 ± 0.071
EDAPSSDDLEQFAKQFKQRRIKLGFTQADVGLALGQLYGNVFSQTTICRFEALQLSFKNMCKLKPLLNKWLEETDSSS	0.032 ± 0.075
EDAPSSDDLEQFAKQFKQRRIKLGFTQADVGLALGSLYGNVFSQTTICRFEALQLSFKNMCKLKPLLNKWLEETDSSS	0.134 ± 0.07
EDAPSSDDLEQFAKQFKQRRIKLGFTQADVGLALGCLYGNVFSQTTICRFEALQLSFKNMCKLKPLLNKWLEETDSSS	-0.18 ± 0.11

Variant	abundance fitness
EDAPSSDDLEQFAKQFKQRRIKLGFTQADVGLALGALYGNVFSQTTICRFEALQLSFKNMCKLKPLLNKWLEETDSSS	-0.162 ± 0.072
EDAPSSDDLEQFAKQFKQRRIKLGFTQADVGLALGELYGNVFSQTTICRFEALQLSFKNMCKLKPLLNKWLEETDSSS	0.158 ± 0.063
EDAPSSDDLEQFAKQFKQRRIKLGFTQADVGLALGILYGNVFSQTTICRFEALQLSFKNMCKLKPLLNKWLEETDSSS	-0.178 ± 0.14
EDAPSSDDLEQFAKQFKQRRIKLGFTQADVGLALGYLYGNVFSQTTICRFEALQLSFKNMCKLKPLLNKWLEETDSSS	-0.416 ± 0.19
EDAPSSDDLEQFAKQFKQRRIKLGFTQADVGLALGHLYGNVFSQTTICRFEALQLSFKNMCKLKPLLNKWLEETDSSS	-0.299 ± 0.15
EDAPSSDDLEQFAKQFKQRRIKLGFTQADVGLALGRLYGNVFSQTTICRFEALQLSFKNMCKLKPLLNKWLEETDSSS	0.089 ± 0.046
EDAPSSDDLEQFAKQFKQRRIKLGFTQADVGLALGLLYGNVFSQTTICRFEALQLSFKNMCKLKPLLNKWLEETDSSS	-0.154 ± 0.063
EDAPSSDDLEQFAKQFKQRRIKLGFTQADVGLALGWLYGNVFSQTTICRFEALQLSFKNMCKLKPLLNKWLEETDSSS	-0.532 ± 0.11
EDAPSSDDLEQFAKQFKQRRIKLGFTQADVGLALGGLYGNVFSQTTICRFEALQLSFKNMCKLKPLLNKWLEETDSSS	-0.166 ± 0.052
EDAPSSDDLEQFAKQFKQRRIKLGFTQADVGLALGDLYGNVFSQTTICRFEALQLSFKNMCKLKPLLNKWLEETDSSS	0.112 ± 0.092
EDAPSSDDLEQFAKQFKQRRIKLGFTQADVGLALGTLRGNVFSQTTICRFEALQLSFKNMCKLKPLLNKWLEETDSSS	-0.383 ± 0.064
EDAPSSDDLEQFAKQFKQRRIKLGFTQADVGLALGTLDGNVFSQTTICRFEALQLSFKNMCKLKPLLNKWLEETDSSS	-0.058 ± 0.12
EDAPSSDDLEQFAKQFKQRRIKLGFTQADVGLALGTLWGNVFSQTTICRFEALQLSFKNMCKLKPLLNKWLEETDSSS	-0.43 ± 0.087
EDAPSSDDLEQFAKQFKQRRIKLGFTQADVGLALGTLLGNVFSQTTICRFEALQLSFKNMCKLKPLLNKWLEETDSSS	-0.418 ± 0.08
EDAPSSDDLEQFAKQFKQRRIKLGFTQADVGLALGTLPGNVFSQTTICRFEALQLSFKNMCKLKPLLNKWLEETDSSS	-0.44 ± 0.13
EDAPSSDDLEQFAKQFKQRRIKLGFTQADVGLALGTLIGNVFSQTTICRFEALQLSFKNMCKLKPLLNKWLEETDSSS	0.108 ± 0.14
EDAPSSDDLEQFAKQFKQRRIKLGFTQADVGLALGTLEGNVFSQTTICRFEALQLSFKNMCKLKPLLNKWLEETDSSS	-0.332 ± 0.084
EDAPSSDDLEQFAKQFKQRRIKLGFTQADVGLALGTLSGNVFSQTTICRFEALQLSFKNMCKLKPLLNKWLEETDSSS	-0.026 ± 0.063
EDAPSSDDLEQFAKQFKQRRIKLGFTQADVGLALGTLVGNVFSQTTICRFEALQLSFKNMCKLKPLLNKWLEETDSSS	-0.031 ± 0.062
EDAPSSDDLEQFAKQFKQRRIKLGFTQADVGLALGTLQGNVFSQTTICRFEALQLSFKNMCKLKPLLNKWLEETDSSS	-0.173 ± 0.094
EDAPSSDDLEQFAKQFKQRRIKLGFTQADVGLALGTLCGNVFSQTTICRFEALQLSFKNMCKLKPLLNKWLEETDSSS	-0.029 ± 0.085
EDAPSSDDLEQFAKQFKQRRIKLGFTQADVGLALGTLHGNVFSQTTICRFEALQLSFKNMCKLKPLLNKWLEETDSSS	-0.014 ± 0.17
EDAPSSDDLEQFAKQFKQRRIKLGFTQADVGLALGTLKGNVFSQTTICRFEALQLSFKNMCKLKPLLNKWLEETDSSS	-0.153 ± 0.092
EDAPSSDDLEQFAKQFKQRRIKLGFTQADVGLALGTLMGNVFSQTTICRFEALQLSFKNMCKLKPLLNKWLEETDSSS	-0.486 ± 0.1

Variant	abundance fitness
EDAPSSDDLEQFAKQFKQRRIKLGFTQADVGLALGTLFGNVFSQTTICRFEALQLSFKNMCKLKPLLNKWLEETDSSS	-0.13 ± 0.12
EDAPSSDDLEQFAKQFKQRRIKLGFTQADVGLALGTLNGNVFSQTTICRFEALQLSFKNMCKLKPLLNKWLEETDSSS	0.019 ± 0.12
EDAPSSDDLEQFAKQFKQRRIKLGFTQADVGLALGTLAGNVFSQTTICRFEALQLSFKNMCKLKPLLNKWLEETDSSS	-0.153 ± 0.072
EDAPSSDDLEQFAKQFKQRRIKLGFTQADVGLALGTCYGNVFSQTTICRFEALQLSFKNMCKLKPLLNKWLEETDSSS	0.206 ± 0.12
EDAPSSDDLEQFAKQFKQRRIKLGFTQADVGLALGTQYGNVFSQTTICRFEALQLSFKNMCKLKPLLNKWLEETDSSS	-0.054 ± 0.084
EDAPSSDDLEQFAKQFKQRRIKLGFTQADVGLALGTKYGNVFSQTTICRFEALQLSFKNMCKLKPLLNKWLEETDSSS	0.137 ± 0.072
EDAPSSDDLEQFAKQFKQRRIKLGFTQADVGLALGTMYGNVFSQTTICRFEALQLSFKNMCKLKPLLNKWLEETDSSS	0.097 ± 0.072
EDAPSSDDLEQFAKQFKQRRIKLGFTQADVGLALGTGYGNVFSQTTICRFEALQLSFKNMCKLKPLLNKWLEETDSSS	-0.275 ± 0.061
EDAPSSDDLEQFAKQFKQRRIKLGFTQADVGLALGTHYGNVFSQTTICRFEALQLSFKNMCKLKPLLNKWLEETDSSS	0.133 ± 0.36
EDAPSSDDLEQFAKQFKQRRIKLGFTQADVGLALGTEYGNVFSQTTICRFEALQLSFKNMCKLKPLLNKWLEETDSSS	-0.062 ± 0.06
EDAPSSDDLEQFAKQFKQRRIKLGFTQADVGLALGTYYGNVFSQTTICRFEALQLSFKNMCKLKPLLNKWLEETDSSS	0.175 ± 0.15
EDAPSSDDLEQFAKQFKQRRIKLGFTQADVGLALGTNYGNVFSQTTICRFEALQLSFKNMCKLKPLLNKWLEETDSSS	-0.333 ± 0.19
EDAPSSDDLEQFAKQFKQRRIKLGFTQADVGLALGTVYGNVFSQTTICRFEALQLSFKNMCKLKPLLNKWLEETDSSS	-0.198 ± 0.073
EDAPSSDDLEQFAKQFKQRRIKLGFTQADVGLALGTDYGNVFSQTTICRFEALQLSFKNMCKLKPLLNKWLEETDSSS	-0.35 ± 0.14
EDAPSSDDLEQFAKQFKQRRIKLGFTQADVGLALGTSYGNVFSQTTICRFEALQLSFKNMCKLKPLLNKWLEETDSSS	-0.261 ± 0.1
EDAPSSDDLEQFAKQFKQRRIKLGFTQADVGLALGTWYGNVFSQTTICRFEALQLSFKNMCKLKPLLNKWLEETDSSS	-0.251 ± 0.075
EDAPSSDDLEQFAKQFKQRRIKLGFTQADVGLALGTFYGNVFSQTTICRFEALQLSFKNMCKLKPLLNKWLEETDSSS	-0.06 ± 0.098
EDAPSSDDLEQFAKQFKQRRIKLGFTQADVGLALGTIYGNVFSQTTICRFEALQLSFKNMCKLKPLLNKWLEETDSSS	0.11 ± 0.15
EDAPSSDDLEQFAKQFKQRRIKLGFTQADVGLALWTLYGNVFSQTTICRFEALQLSFKNMCKLKPLLNKWLEETDSSS	-0.439 ± 0.092
EDAPSSDDLEQFAKQFKQRRIKLGFTQADVGLALYTLYGNVFSQTTICRFEALQLSFKNMCKLKPLLNKWLEETDSSS	-0.313 ± 0.31
EDAPSSDDLEQFAKQFKQRRIKLGFTQADVGLALVTLYGNVFSQTTICRFEALQLSFKNMCKLKPLLNKWLEETDSSS	-0.641 ± 0.099
EDAPSSDDLEQFAKQFKQRRIKLGFTQADVGLALGTLYGAVFSQTTICRFEALQLSFKNMCKLKPLLNKWLEETDSSS	-0.179 ± 0.057
